B1: CPEB3 Ribozyme (parent)
chain: GGGGGCCACAGCAGAAGCGUUCACGUCGCGGCCCCUGUCAGAUUCUGGUGAAUCUGCGAAUUCUGCUGU

Variants of B1 are the subject of this series. In words: self-cleavage, relative activity (ratio to wild type); higher = more cleavage; co-transcriptional.
Take G3A G56U: the self-cleavage came to 0.467. As to G3A G56A, the self-cleavage stood at 0.26.

Take G3A U69G: the self-cleavage amounted to 0.793. The same measure for G3A U69A: 0.847; for G3A G68U: 0.86. In the case of G3A G68C, the self-cleavage was 0.764.

Take G3A G68A: the self-cleavage was determined as 0.852.

As to G3A C66A, the self-cleavage came to 0.442. As for G3A C66U, the self-cleavage is 0.724.

For the variant G3A C66G, the self-cleavage is 0.597.

As to G3A G28U, the self-cleavage was found to be 0.104. In the case of G3A G28A, the self-cleavage worked out at 0.113. For the variant G3A G28C, the self-cleavage stood at 0.0675. Consider G3C A23G, for which the self-cleavage was found to be 0.0477. Regarding G3C A23C, the self-cleavage was 0.0635. Turning to G3A A15C, the self-cleavage came to 0.308. G3A A15G: the self-cleavage was 0.635. Next, G3A A15U: 0.337; G3A A60U: 0.123. Take G2U U55A: the self-cleavage was determined as 0.0595. Take G3A C18U: the self-cleavage came out at 0.349.

As for G3A U38G, the self-cleavage turned out to be 0.113. As for G3A U26G, the self-cleavage worked out at 0.29. On to G3A U26A, for which the self-cleavage was found to be 0.187.

Take G3C: the self-cleavage was 0.147. Regarding G3A, the self-cleavage came out at 0.693.

With G3A G25U, the self-cleavage was 0.054. Next, G3A A59G: 0.362; G3A A59U: 0.198; G3A G41A: 0.222. G3A G41U: the self-cleavage amounted to 0.277. Take G3A A40G: the self-cleavage is 0.455. Regarding G3C A10C, the self-cleavage was determined as 0.175. As to G3C A10G, the self-cleavage came to 0.215. Turning to G3A C33G, the self-cleavage was found to be 0.153.

As to G3A C33U, the self-cleavage was 0.231. In the case of G3A U49G, the self-cleavage was 0.392. Turning to G3A U49A, the self-cleavage came out at 0.627. G2U U53G: the self-cleavage came to 0.0896. Turning to G2U U53C, the self-cleavage came out at 0.0669. On to G2U U53A, for which the self-cleavage was determined as 0.0959.

Turning to G3A A42U, the self-cleavage was determined as 0.394. With G3A A42G, the self-cleavage amounted to 0.584. In the case of G3A A42C, the self-cleavage was determined as 0.338.

In the case of G2U U43A, the self-cleavage turned out to be 0.118. Turning to G2U U43C, the self-cleavage stood at 0.0688. G2U U43G: the self-cleavage was determined as 0.0816. Next, G3A C24G: 0.0795; G3A C24U: 0.188; G3A C24A: 0.153.

G3A A10C: the self-cleavage was 0.876.

With G3A A10U, the self-cleavage was 0.889. In the case of G3A A10G, the self-cleavage came out at 0.679.

Take G3A C45U: the self-cleavage was 0.634. G3A G37U: the self-cleavage stood at 0.0837. G3A G37A: the self-cleavage came to 0.143. For G3A A13U, the self-cleavage turned out to be 0.339.

As for G3A A13G, the self-cleavage was determined as 0.596.

On to G2U U46A, for which the self-cleavage was found to be 0.0474.

Consider G2U U46C, for which the self-cleavage came out at 0.0853. The same measure for G2U U61C: 0.0727. Consider G3A C22A, for which the self-cleavage stood at 0.0741. As to G3A C22G, the self-cleavage is 0.0453. G3A U67G: the self-cleavage was determined as 0.818.

Take G3A U67C: the self-cleavage was 0.819. As to G3C A40G, the self-cleavage turned out to be 0. As for G3C A40U, the self-cleavage turned out to be 0.016. The same measure for G3C A40C: 0.0512; for G3A C39U: 0.273. For G3A C39A, the self-cleavage worked out at 0.328. As for G3A U62A, the self-cleavage is 0.312. The same measure for G3A U62C: 0.357.

As for G3A U62G, the self-cleavage turned out to be 0.392. G3A A51C: the self-cleavage was 0.413. For G3A A51U, the self-cleavage is 0.651.

As to G3A C7U, the self-cleavage came to 0.298.

G3A G31A: the self-cleavage came to 0.224. The same measure for G3A G31C: 0.122; for G3A G11U: 0.402; for G3A G11A: 0.48. With G3A G11C, the self-cleavage came to 0.33. For G3A C63G, the self-cleavage came out at 0.317. Take G3A C63A: the self-cleavage was determined as 0.331. Consider G3C A16C, for which the self-cleavage was 0.0367. Turning to G3C A16U, the self-cleavage was determined as 0.0415.

Take G3C A16G: the self-cleavage was 0.162. The same measure for G3A G5U: 0.0857. As for G3A G5A, the self-cleavage turned out to be 0.101. As to G3A C29G, the self-cleavage was found to be 0.122. The same measure for G3A C29A: 0.149; for G3A C29U: 0.145; for G3A U46G: 0.688.

As to G3A U61C, the self-cleavage came to 0.246. As to G3A U61A, the self-cleavage was found to be 0.269. For G3A G48U, the self-cleavage is 0.722.

For the variant G3A G48A, the self-cleavage came to 0.69. On to G3A U21G, for which the self-cleavage came out at 0.129. Turning to G3A U21A, the self-cleavage came to 0.455.

As for G3A U21C, the self-cleavage was 0.371. The same measure for G3A G17A: 0.0767; for G3A G17C: 0.0537.

For the variant G3A G17U, the self-cleavage worked out at 0.0783. The same measure for G3A U20A: 0.0708. In the case of G2U U67A, the self-cleavage worked out at 0.127. G2U U67G: the self-cleavage is 0.116.

With G2U U67C, the self-cleavage was determined as 0.107. In the case of G3A A16U, the self-cleavage worked out at 0.185. For G3A A16C, the self-cleavage was found to be 0.0704.

Consider G3A G14C, for which the self-cleavage came to 0.159. Consider G3A C9G, for which the self-cleavage worked out at 0.858. Consider G3A C9A, for which the self-cleavage stood at 0.895. For the variant G3C A8U, the self-cleavage was 0.123. Take G3C A8G: the self-cleavage was 0.0364.

For the variant G3C A8C, the self-cleavage turned out to be 0.0756. Next, G3A G50A: 0.645.

In the case of G2U U69G, the self-cleavage is 0.109. Regarding G3A U44C, the self-cleavage turned out to be 0.474. Take G3A U44A: the self-cleavage came out at 0.54. As for G3A U44G, the self-cleavage came out at 0.331. For the variant G3A C32G, the self-cleavage worked out at 0.176. The same measure for G3A C32A: 0.191; for G3A C32U: 0.302; for G3A C54U: 0.602. The same measure for G3A C54G: 0.25. As to G3A C54A, the self-cleavage worked out at 0.243. Next, G3A A52G: 0.563.

For the variant G3A A52U, the self-cleavage was found to be 0.556.

G3A A23C: the self-cleavage was found to be 0.525. For G3A A23G, the self-cleavage was found to be 0.401. The same measure for G3A C12A: 0.324. Take G3A C12G: the self-cleavage is 0.326. For G3A C12U, the self-cleavage came out at 0.723. On to G3A G19U, for which the self-cleavage came to 0.092. Take G3A G19A: the self-cleavage turned out to be 0.105. With G3A G19C, the self-cleavage was found to be 0.0671. With G3A C57G, the self-cleavage stood at 0.175. The same measure for G3A C57U: 0.0942; for G3A C57A: 0.11; for G2U U44A: 0.0745. As for G2U U44G, the self-cleavage came out at 0.0788. G2U U44C: the self-cleavage amounted to 0.067. Next, G3A G58U: 0.701; G3A G4U: 0.0692.

As for G3A G4A, the self-cleavage is 0.204. As to G3A G4C, the self-cleavage turned out to be 0.165. The same measure for G2U U64A: 0.0856; for G3C A13C: 0.0417; for G3C A13U: 0.0542. Regarding G3A U55C, the self-cleavage is 0.187. Next, G3A U55G: 0.291; G3A G65A: 0.527. Take G3A G65U: the self-cleavage was 0.285. For G3A G47U, the self-cleavage was 0.682. Consider G3A G47C, for which the self-cleavage was 0.658. Turning to G3C A15G, the self-cleavage worked out at 0.113. As to G3C A15C, the self-cleavage turned out to be 0.0371. Consider G3C A42C, for which the self-cleavage is 0.0214.

Turning to G3A U53G, the self-cleavage came to 0.284. Next, G3A U53C: 0.416; G3A G30C: 0.103. For G3A G30A, the self-cleavage came to 0.181.

For G3A A8U, the self-cleavage turned out to be 0.697. In the case of G3A C35G, the self-cleavage came to 0.0971. Take G3A C35U: the self-cleavage was found to be 0.215. G2U U62G: the self-cleavage came out at 0.0547. With G3A C34G, the self-cleavage stood at 0.256.

For G3A C34A, the self-cleavage is 0.516.
